Assay [1] addresses T1, 人CD70 (human, UniProt P32970 1-193).
T1 construct: whole, on cells; also called 人类CD70; CD27L
T1 sequence (looked up): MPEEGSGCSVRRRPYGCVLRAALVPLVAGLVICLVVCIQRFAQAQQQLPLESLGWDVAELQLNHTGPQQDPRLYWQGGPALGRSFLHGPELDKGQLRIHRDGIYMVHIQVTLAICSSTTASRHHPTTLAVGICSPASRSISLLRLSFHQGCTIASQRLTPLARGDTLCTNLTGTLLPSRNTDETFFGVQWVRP
Kind of assay: flow cytometry on CD47+CD70+ U266 cells (double positive: binding through CD70 and/or CD47).

Another assay has as its target T2, 人CD47 (human, UniProt Q08722 19-323).
T2 construct: whole, on cells
The assay is described as above.

The target in assay [2] is T1, 人CD70. Kind of assay: flow cytometry on CHO cells expressing human CD70.
In assay [3] the target is T1, 人CD70. Kind of assay: flow cytometry on CD47+CD70+ Raji cells.

The text below walks through data of patent CN113880955A (dated 2022).

Where a chain is given by its changes, count along the chain named. Names may count otherwise.

T2 sequence (Q08722 19-323): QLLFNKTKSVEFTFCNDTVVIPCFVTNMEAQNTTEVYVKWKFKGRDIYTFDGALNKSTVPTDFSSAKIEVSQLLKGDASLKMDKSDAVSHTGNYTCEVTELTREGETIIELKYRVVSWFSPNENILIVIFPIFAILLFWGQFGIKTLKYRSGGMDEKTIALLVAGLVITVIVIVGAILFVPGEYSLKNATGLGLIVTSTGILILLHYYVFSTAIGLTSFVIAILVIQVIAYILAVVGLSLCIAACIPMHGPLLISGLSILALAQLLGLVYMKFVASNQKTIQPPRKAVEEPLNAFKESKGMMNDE

B1: IMM4002 (bispecific antibody, human IgG1, kappa)
heavy: not shown
light: DIVLTQSPASLAVSPGQRATITCRASKSVSASGYSFLHWYQQKPGQPPKLLIYLASNLESGVPARFSGSGSGTDFTLTINPVEANDTANYYCQHSRELPPTFGGGTKVEIKRTVAAPSVFIFPPSDEQLKSGTASVVCLLNNFYPREAKVQWKVDNALQSGNSQESVTEQDSKDSTYSLSSTLTLSKADYEKHKVYACEVTHQGLSSPVTKSFNRGEC
notes: Made in CHO-S cells; also called 重组融合蛋白IMM4002
For B1, the binding result with 人CD70 [1] is listed as “binds”.

B2: IMM4002M (bispecific antibody, human IgG1, kappa)
heavy: not shown
light: B1 light with N85E
notes: As IMM4002, but the light chain variable region carries N85E, which removes the glycosylation site (antibody part = IMM40M); also called 重组融合蛋白IMM4002M
For B2, the binding result with 人CD47 and with 人CD70 [1] was “binds” throughout.

B3: IMM4003 (bispecific antibody, human IgG1, kappa)
heavy: QVQLVQSGAEVKKPGASVKVSCKVSGYTFTDSALHWVRQAPGKGLEWMGVISTYDGDTDYNQKFKGRVTMTEDTSTDTAYMELSSLRSEDTAVYYCARRGYYDYDWFPYWGQGTLVTVSAASTKGPSVFPLAPSSKSTSGGTAALGCLVKDYFPEPVTVSWNSGALTSGVHTFPAVLQSSGLYSLSSVVTVPSSSLGTQTYICNVNHKPSNTKVDKRVEPKSCDKTHTCPPCPAPELLGGPSVFLFPPKPKDTLMISRTPEVTCVVVDVSHEDPEVKFNWYVDGVEVHNAKTKPREEQYNATYRVVSVLTVLHQDWLNGKEYKCKVSNKALPAPIAATISKAKGQPREPQVYTLPPSREEMTKNQVSLTCLVKGFYPSDIAVEWESNGQPENNYKTTPPVLDSDGSFFLYSKLTVDKSRWQQGNVFSCSVMHEALHNHYTQKSLSLSPGK
light: not shown
notes: also called 重组融合蛋白IMM4003
As to B3, the binding result in the assay with 人CD70 [2] is “binds”.

B4: IMM40H (antibody, human IgG1, kappa, V domains shown)
VH: QVQLVQSGAEVKKPGASVKVSCKVSGYTFTDSALHWVRQAPGKGLEWMGVISTYDGDTDYNQKFKGRVTMTEDTSTDTAYMELSSLRSEDTAVYYCARRGYYDYDWFPYWGQGTLVTVSA
VL: DIVLTQSPASLAVSPGQRATITCRASKSVSASGYSFLHWYQQKPGQPPKLLIYLASNLESGVPARFSGSGSGTDFTLTINPVEANDTANYYCQHSRELPPTFGGGTKVEIKR
notes: IgG antibody against CD70; also called CD70抗体IMM40H; CD70单特异性抗体IMM40H
For the molecule B4, the binding result in the assay with 人CD70 [2] was “binds”.

B5: Cusatuzumab (antibody, human IgG1, lambda, V domains shown)
VH: EVQLVESGGGLVQPGGSLRLSCAASGFTFSVYYMNWVRQAPGKGLEWVSDINNEGGTTYYADSVKGRFTISRDNSKNSLYLQMNSLRAEDTAVYYCARDAGYSNHVPIFDSWGQGTLVTVSS
VL: QAVVTQEPSLTVSPGGTVTLTCGLKSGSVTSDNFPTWYQQTPGQAPRLLIYNTNTRHSGVPDRFSGSILGNKAALTITGAQADDEAEYFCALFISNPSVEFGGGTQLTVLG
notes: IgG antibody against CD70, used as control
As for B5, the binding result in the assay with 人CD70 [3] was “binds”.
